# Results reported in US20170174769A1 (Regeneron, published 2017).
# Where “and” joins values, the source holds several entries; their conditions need not be identical. Equal values may be shown once.
# T1: extracellular domain of human FGFR1c expressed with C-terminal V5 and hexahistidine tags (human, UniProt P11362 22-376)
# T1 construct: also called hFGFR1c-V5-6His
# T1 sequence: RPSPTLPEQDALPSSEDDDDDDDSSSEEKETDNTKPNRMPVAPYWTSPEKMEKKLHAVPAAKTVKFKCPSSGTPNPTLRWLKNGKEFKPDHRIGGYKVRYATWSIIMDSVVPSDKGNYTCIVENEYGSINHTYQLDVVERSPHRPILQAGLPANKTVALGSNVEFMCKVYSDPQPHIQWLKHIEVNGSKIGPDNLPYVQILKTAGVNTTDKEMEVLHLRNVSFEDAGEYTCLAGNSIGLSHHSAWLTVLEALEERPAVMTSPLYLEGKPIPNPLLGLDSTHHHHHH
# T2: extracellular domain of human KLB expressed with C-terminal HA and hexahistidine tags (human, UniProt Q86Z14 1-996)
# T2 construct: also called hKLB-HA-6His; hKLB-HA-6his
# T2 sequence: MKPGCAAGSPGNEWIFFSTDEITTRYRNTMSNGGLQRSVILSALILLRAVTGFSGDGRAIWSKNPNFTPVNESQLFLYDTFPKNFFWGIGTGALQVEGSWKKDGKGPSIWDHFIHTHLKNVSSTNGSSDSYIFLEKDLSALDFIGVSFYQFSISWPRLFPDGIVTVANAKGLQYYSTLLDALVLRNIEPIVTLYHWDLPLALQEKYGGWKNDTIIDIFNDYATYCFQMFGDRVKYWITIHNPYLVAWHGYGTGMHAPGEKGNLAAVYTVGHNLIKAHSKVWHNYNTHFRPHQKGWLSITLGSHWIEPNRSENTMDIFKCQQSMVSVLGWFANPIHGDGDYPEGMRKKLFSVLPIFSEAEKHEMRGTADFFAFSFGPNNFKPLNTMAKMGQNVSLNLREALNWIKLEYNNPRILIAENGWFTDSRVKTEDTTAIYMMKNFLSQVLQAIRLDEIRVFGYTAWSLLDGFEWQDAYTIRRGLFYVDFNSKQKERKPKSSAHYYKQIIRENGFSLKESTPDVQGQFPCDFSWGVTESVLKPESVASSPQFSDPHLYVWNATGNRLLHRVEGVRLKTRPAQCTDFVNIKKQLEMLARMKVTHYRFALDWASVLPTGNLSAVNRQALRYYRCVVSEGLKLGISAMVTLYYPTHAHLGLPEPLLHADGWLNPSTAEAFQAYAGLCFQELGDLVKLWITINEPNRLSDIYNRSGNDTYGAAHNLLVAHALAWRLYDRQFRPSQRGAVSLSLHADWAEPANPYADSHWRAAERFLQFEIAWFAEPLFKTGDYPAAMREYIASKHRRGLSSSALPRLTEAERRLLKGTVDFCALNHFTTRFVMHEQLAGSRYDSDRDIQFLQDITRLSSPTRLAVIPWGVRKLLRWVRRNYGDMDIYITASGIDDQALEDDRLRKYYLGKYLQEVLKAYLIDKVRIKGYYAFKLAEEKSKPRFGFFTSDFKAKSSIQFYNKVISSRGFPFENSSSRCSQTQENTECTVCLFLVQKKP
# B1: H2bM8833N (antibody, V domains shown)
# VH: QVQLVESGGGVVQPGRSLRLSCAASGFTFSRYGIHWVRQAPGKGLEWVAVIWYDGSNKYYADSLKGRFTISRDNSKNTLYLQMNSLRAEDTAVYYCARDQGNYIDYWGQGTLVTVSS
# VL: AIQMTQSPSSLSASVGDRVTITCRTSQGIRNDLGWYQQKPGKVPKLLIYAASSLQSGVPSRFSGSGSGTDFTLTISSLQPEDFATYYCLQDYNYPFTFGPGTKVDIK
# notes: mouse IgG2 Fc (H2bM prefix)
# B2: mouse FGF21 (ligand, UniProt Q9JJN1 29-210, looked up)
# chain: AYPIPDSSPLLQFGGQVRQRYLYTDDDQDTEAHLEIREDGTVVGAAHRSPESLLELKALKPGVIQILGVKASRFLCQQPDGALYGSPHFDPEACSFRELLLEDGYNVYQSEAHGLPLRLPQKDSPNQDATSWGPVRFLPMPGLLHEPQDQAGFLPPEPPDVGSSDPLSMVEPLQGRSPSYAS
# B3: H2bM8096N (antibody, V domains shown)
# VH: QVQLVESGGGVVQPGRSLRLSCAASGFTFSSYGLHWVRQAPGKGLEWVAVIWHDGSHKYYADSVKGRFTISRDNSKNTVYLQMNSLRAEDTAVYYCARDGIPVAEDYYLYGMDVWGQGTTVTVSS
# VL: EIVLTQSPGTLSLSPGERATLSCRASQSVDSSYLAWYHQKPGQAPRLLIYGASSRATGIPDRFSGSGSGTDFTLTISRLEPEDFAVYYCQQYGSSRTFGQGTKVEIK
# notes: mouse IgG2 Fc (H2bM prefix)
# B4: scFv8092N-IgG4mutFc x scFv8900P-IgG4mutFc* Heterodimer (bispecific antibody)
# chain 1: not shown
# chain 2: QVQLVESGGGVVQPGRSLRLSCVASGFTFSSYGMHWVRQAPGKGLEWVAVISFDGSNKYYADSVKGRFTISRDNSKNTLYLQMNSLRPADTAVYYCAKDRSNYYYFGMDVWGQGTTVTVSSGGGGSGGGGSGGGGSDIVMTQTPLSLPVTPGEPASISCRSSQSLLDSDDGNTYLDWYLQKPGQSPQLLIYTLSYRASGVPDRFSGSGSGTDFTLKISRVEAEDVGVYYCMQRIEFPLTFGGGTKVEIKGGGGSGGGGSGGGGSESKYGPPCPPCPAPEFLGGPSVFLFPPKPKDTLMISRTPEVTCVVVDVSQEDPEVQFNWYVDGVEVHNAKTKPREEQFNSTYRVVSVLTVLHQDWLNGKEYKCKVSNKGLPSSIEKTISKAKGQPREPQVYTLPPSQEEMTKNQVSLTCLVKGFYPSDIAVEWESNGQPENNYKTTPPVLDSDGSFFLYSRLTVDKSRWQEGNVFSCSVMHEALHNRFTQKSLSLSPGK
# notes: also called 8900P ScFv-Fc*/8092N ScFv-Fc; H4H8900P ScFv-Fc*/H4H8092N ScFv-Fc
# Experiments:
# [1] = target: T1, extracellular domain of human FGFR1c …; test: SPR, mAb captured, 25 C
# Description: (§1) Equilibrium dissociation constants (KD values) for human KLB or human FGFR1c binding to purified anti-KLB/FGFR1c monoclonal antibodies were determined using a real-time surface plasmon resonance biosensor using a Biacore T-200 or 4000 instrument. The Biacore sensor surface was derivatized by amine coupling with either a polyclonal rabbit anti-mouse antibody (GE, # BR-1008-38) or with a monoclonal mouse anti-human Fc antibody (GE, # BR-1008-39) to capture anti-KLB/FGFR1c monoclonal antibodies expressed with either a mouse Fc or a human Fc, respectively. All Biacore binding studies were performed in a buffer composed of 0.01M HEPES pH 7.4, 0.15M NaCl, 3mM EDTA, 0.05% v/v Surfactant P20 (HBST running buffer). […] Association of hKLB-HA-6His or hFGFR1c-V5-6His to the captured monoclonal antibody was monitored for 3.5 to 4 minutes and the dissociation of hKLB-HA-6His or hFGFR1c-V5-6His in HBST running buffer was monitored for 8-12 minutes. All the binding kinetics experiments were performed at 25° C. or 37° C. Kinetic association (kₐ) and dissociation (kd) rate constants were determined by fitting the real-time sensorgrams to a 1:1 binding model using Scrubber 2.0c curve fitting software. Binding dissociation equilibrium constants (KD) and dissociative half-lives (t½) were calculated from the kinetic rate constants as: […]
# [2] = target: T3, full-length human FGFR1c on HEK293/hFGFR1c/SRE-luc cells (human, UniProt P11362 22-822); test: FACS on stable HEK293 cells
# T3 construct: amino acids 1-733 of NP_075593
# T3 sequence (P11362 other isoform, or with tags, fused parts or gaps limits assumed): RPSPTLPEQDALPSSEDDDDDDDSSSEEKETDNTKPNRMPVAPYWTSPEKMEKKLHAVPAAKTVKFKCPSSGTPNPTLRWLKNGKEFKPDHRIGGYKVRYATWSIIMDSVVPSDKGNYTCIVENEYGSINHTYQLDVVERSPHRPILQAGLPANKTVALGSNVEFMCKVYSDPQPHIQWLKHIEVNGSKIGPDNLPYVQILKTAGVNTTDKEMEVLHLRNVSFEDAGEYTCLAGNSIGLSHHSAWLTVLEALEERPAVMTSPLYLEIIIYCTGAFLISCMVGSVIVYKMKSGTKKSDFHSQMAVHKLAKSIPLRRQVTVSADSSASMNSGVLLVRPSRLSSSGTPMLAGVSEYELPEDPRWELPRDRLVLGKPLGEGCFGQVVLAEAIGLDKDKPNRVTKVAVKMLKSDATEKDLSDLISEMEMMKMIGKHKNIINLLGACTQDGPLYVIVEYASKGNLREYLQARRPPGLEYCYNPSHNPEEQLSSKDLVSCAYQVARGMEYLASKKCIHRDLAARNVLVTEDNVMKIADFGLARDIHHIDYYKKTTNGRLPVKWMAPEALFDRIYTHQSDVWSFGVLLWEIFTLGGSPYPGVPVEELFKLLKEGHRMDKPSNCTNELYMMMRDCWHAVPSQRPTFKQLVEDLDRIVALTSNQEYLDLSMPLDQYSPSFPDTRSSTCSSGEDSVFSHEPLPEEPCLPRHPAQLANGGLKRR
# Description: To determine binding specificity of the monoclonal anti-KLB/FGFR1c antibodies, the antibodies were tested in a fluorescence-activated cell sorting (FACS) binding assay to cell lines expressing human FGFR1c, human KLB, and both human FGFR1c and human KLB. HEK293 cell lines were generated that stably express full-length human FGFR1c (hFGFR1c; SEQ ID NO:433) or full-length human KLB (hKLB; SEQ ID NO:434) or both human FGFR1c and human KLB, along with a luciferase reporter [SRE (serum response element)-luciferase, SA Bioscience, #CLS-010L]. The resulting cell lines, referred to as HEK293/hFGFR1c/SRE-luc, HEK293/hKLB/SRE-luc, and HEK293/hKLB/hFGFR1c/SRE-luc, respectively, were maintained in DMEM supplemented with 10% FBS, NEAA, penicillin/streptomycin, 1 μg/mL puromycin and […] hygromycin B, 1 μg/mL puromycin and 500 μg/mL G418, or all three antibiotics.
# For the FACS analysis, HEK293 parental, HEK293/hFGFR1c/SRE-luc, HEK293/hKLB/SRE-luc, and HEK293/hKLB/hFGFR1c/SRE-luc cells were dissociated and plated onto 96-well v-bottom plates at 5 x 10⁵ cells/well in PBS containing 1% FBS. […] Cells were filtered and subsequently analyzed on a Hypercyte Flow Cytometer (Intellicyt Corp.). Unstained and secondary antibody alone controls were also tested for binding to all cell lines. The results were analyzed using FlowJo version 9.52 software and geometric mean (Geom. Mean) of fluorescence for viable cells was determined. Geom. mean of fluorescence for each antibody was then normalized to Geom. mean of unstained cells to obtain relative binding of antibody (binding ratios) per each cell type.
# [3] = target: M. fascicularis KLB and human FGFR1c co-expressed on HEK293/MfKLB/hFGFR1c/SRE-Luc cells (M. fascicularis; human, UniProt A0A2K5WB58 1-1044); test: cell-based or functional assay
# M. fascicularis KLB and human FGFR1c co-expressed on HEK293/MfKLB/hFGFR1c/SRE-Luc cells, sequence (chain, as listed by the source, chain 1 of 2): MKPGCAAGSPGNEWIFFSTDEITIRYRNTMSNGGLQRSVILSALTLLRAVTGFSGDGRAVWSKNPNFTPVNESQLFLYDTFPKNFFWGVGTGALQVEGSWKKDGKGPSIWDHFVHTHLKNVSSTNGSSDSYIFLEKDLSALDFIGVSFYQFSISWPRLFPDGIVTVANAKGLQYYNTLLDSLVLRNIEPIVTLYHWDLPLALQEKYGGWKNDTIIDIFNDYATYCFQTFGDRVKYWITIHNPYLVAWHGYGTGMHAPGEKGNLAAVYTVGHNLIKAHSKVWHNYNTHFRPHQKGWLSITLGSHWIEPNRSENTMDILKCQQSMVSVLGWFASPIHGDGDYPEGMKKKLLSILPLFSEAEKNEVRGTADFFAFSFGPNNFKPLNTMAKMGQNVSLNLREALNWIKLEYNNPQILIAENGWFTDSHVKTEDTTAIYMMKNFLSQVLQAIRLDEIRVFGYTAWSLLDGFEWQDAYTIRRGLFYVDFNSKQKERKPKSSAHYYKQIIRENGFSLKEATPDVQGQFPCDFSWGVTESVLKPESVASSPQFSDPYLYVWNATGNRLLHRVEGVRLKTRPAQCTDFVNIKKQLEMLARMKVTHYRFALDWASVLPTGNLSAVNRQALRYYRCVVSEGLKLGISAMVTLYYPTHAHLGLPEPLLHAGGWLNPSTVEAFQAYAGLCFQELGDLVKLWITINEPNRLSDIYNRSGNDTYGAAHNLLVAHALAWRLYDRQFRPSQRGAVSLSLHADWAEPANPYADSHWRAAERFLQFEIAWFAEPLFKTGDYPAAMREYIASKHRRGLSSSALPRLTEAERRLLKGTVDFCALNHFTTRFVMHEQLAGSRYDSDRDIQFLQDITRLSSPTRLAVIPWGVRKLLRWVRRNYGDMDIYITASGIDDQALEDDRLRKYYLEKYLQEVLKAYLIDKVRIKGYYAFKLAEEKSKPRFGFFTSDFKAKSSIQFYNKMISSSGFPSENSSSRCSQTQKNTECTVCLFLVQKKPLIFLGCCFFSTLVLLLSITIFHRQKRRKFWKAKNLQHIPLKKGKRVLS
# M. fascicularis KLB and human FGFR1c co-expressed on HEK293/MfKLB/hFGFR1c/SRE-Luc cells, sequence (chain, as listed by the source, chain 2 of 2): as the sequence (P11362 other isoform, or with tags, fused parts or gaps limits assumed) above
# [4] = target: T1, extracellular domain of human FGFR1c …; test: SPR, mAb captured, 37 C
# Description: as §1
# [5] = target: mouse KLB and mouse FGFR1c co-expressed on HEK293/mKLB/mFGFR1c/SRE-Luc cells (mouse); test: cell-based or functional assay
# [6] = target: T2, extracellular domain of human KLB …; test: SPR, mAb captured, 25 C
# Description: as §1
# [7] = target: cell-surface human FGFR1c (amino acids 1-731 of NP_075594) with cell-surface human KLB on … (human, UniProt P11362 22-822); test: cell-based or functional assay
# cell-surface human FGFR1c (amino acids 1-731 of NP_075594) with cell-surface human KLB on …, sequence (P11362 22-822): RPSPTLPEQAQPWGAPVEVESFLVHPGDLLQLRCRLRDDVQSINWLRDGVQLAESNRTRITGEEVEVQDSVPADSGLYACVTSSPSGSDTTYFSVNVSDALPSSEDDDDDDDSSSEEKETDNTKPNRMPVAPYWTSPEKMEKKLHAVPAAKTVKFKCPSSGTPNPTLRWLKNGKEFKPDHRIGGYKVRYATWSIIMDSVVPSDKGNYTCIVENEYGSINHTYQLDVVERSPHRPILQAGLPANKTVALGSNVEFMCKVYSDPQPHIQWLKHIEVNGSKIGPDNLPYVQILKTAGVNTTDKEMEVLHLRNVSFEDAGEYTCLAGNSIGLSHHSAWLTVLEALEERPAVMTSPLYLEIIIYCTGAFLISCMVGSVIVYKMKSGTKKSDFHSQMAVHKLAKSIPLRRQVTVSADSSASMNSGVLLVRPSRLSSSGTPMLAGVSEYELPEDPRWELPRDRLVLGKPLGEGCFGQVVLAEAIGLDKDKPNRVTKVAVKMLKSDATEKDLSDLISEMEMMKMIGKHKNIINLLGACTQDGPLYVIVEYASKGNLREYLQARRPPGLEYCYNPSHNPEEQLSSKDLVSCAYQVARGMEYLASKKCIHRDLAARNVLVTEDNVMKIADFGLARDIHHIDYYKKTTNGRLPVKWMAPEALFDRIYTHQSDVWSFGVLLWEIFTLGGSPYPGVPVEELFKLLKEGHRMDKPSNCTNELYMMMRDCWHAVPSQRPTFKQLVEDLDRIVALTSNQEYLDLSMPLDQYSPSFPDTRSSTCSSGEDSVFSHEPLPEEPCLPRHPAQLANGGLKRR
# [8] = target: T2, extracellular domain of human KLB …; test: SPR, mAb captured, 37 C
# Description: as §1
# [9] = target: human KLB and human FGFR1c co-expressed on HEK293/hKLB/hFGFR1c/SRE-luc cells (human, UniProt Q86Z14 1-1044; P11362 22-822); test: cell-based or functional assay
binder,measurement,setting,value
B1,180 nM hFGFR1c-V5-6His Bind (RU),[1],1.9 RU
same,binding ratio to unstained cells,[2],9 fold
same,"IC50, inhibition of 10 nM mfFGF21",[3],0.099 nM
same,Maximum Inhibition (%) of 10 nM mfFGF21,[3],16%
same,180 nM hFGFR1c-V5-6His Bind (RU),[4],1.4 RU
B2,"EC50, SRE-luc activation by ligand",[5],0.33 nM and 0.37 nM
B3,180 nM hFGFR1c-V5-6His Bind (RU),[1],-0.7 RU
same,180 nM hFGFR1c-V5-6His Bind (RU),[4],-1.2 RU
B4,20 nM hKLB-HA-6His Bind (RU),[6],27.3 RU
same,Kd,[6],0.318 nM
same,koff,[6],3.94e-05 s⁻¹
same,kon,[6],124000 M⁻¹ s⁻¹
same,t1/2,[6],4.89 h
same,180 nM hFGFR1c-V5-6His Bind (RU),[1],0.9 RU
same,binding result,[1],no binding (tested: 180 nM)
same,% Activation,[7],1.6%
same,"EC50, SRE-luc activation",[7],> 5 nM
same,20 nM hKLB-HA-6His Bind (RU),[8],86.7 RU
same,Kd,[8],1.3 nM
same,koff,[8],0.000178 s⁻¹
same,kon,[8],137000 M⁻¹ s⁻¹
same,t1/2,[8],1.08 h
same,180 nM hFGFR1c-V5-6His Bind (RU),[4],0.4 RU
same,"EC50, SRE-luc activation without ligand",[9],0.28 nM
same,"IC50, inhibition of 1 nM 6His-hFGF21",[9],0.39 nM
same,Maximum Activation (%),[9],0.5%
same,Maximum Inhibition (%),[9],90%
